The source of these data is PMC11243334, “Synthesis and Evaluation of the First ^68Ga-Labeled C-Terminal Hydroxamate-Derived Gastrin-Releasing Peptide Receptor-Targeted Tracers for Cancer Imaging with Positron Emission Tomography” (Molecules, 2024).

The target in series [1] is T1, GRPR (Homo sapiens, UniProt P30550).
T1 construct: host or cells: PC-3 human prostate adenocarcinoma cells
Put plainly: Fluorometric intracellular calcium release assay in PC-3 cells. It is filed as cell-based. As to conditions: for Ca2+ mobilization, relative fluorescence units (RFUs = max − min): 50 nM ligand, FLIPR Calcium 6, signal acquired 2 min, n = 3. As to the method:
The antagonist/agonist characteristics of Ga-LW02075 and Ga-LW02050 were determined following previously published procedures. A 96-well clear-bottomed black plate was seeded with 5 × 10^4 PC-3 cells/well in 100 μL growth media 24 h prior to the assay. A calcium-sensitive dye (FLIPR Calcium 6 assay kit from Molecular Devices, San Jose, CA, USA) dissolved in the loading buffer (100 μL/well) was added into the plate followed by 1 h incubation at 37 °C. Then, the plate was transferred into a FlexStation 3 microplate reader (Molecular Devices, San Jose, CA, USA) to record the fluorescent signals. Ga-complexed SB3 derivatives (50 nM), [D-Phe^6,Leu-NHEt^13,des-Met^14]Bombesin(6-14) (50 nM, antagonist control), bombesin (50 nM, agonist control), adenosine triphosphate (ATP, 50 nM, positive control), or DPBS (blank control) were added. The fluorescent signals were acquired for 2 min (λEx = 485 nm; λEm = 525 nm; n = 3). The relative fluorescent units (RFUs = max − min) were calculated to determine the agonistic/antagonistic characteristics of the tested ligands.
A general note: Calcium assays in cells follow changes in intracellular calcium, usually with a dye or a luminescent sensor.

The nature of another series: physchem. As to conditions: n-octanol/DPBS, pH 7.4. As to the method: LogD7.4 values of [^68Ga]Ga-LW02075, [^68Ga]Ga-LW02050, and [^68Ga]Ga-SB3 were measured via the shake flask method. An aliquot of the ^68Ga-labeled tracer (~1.85 MBq) was added to a 15 mL falcon tube containing 3 mL of n-octanol and 3 mL of DPBS (pH 7.4) followed by 1 min of vortex (n = 3). After that, the mixture was centrifuged at 5000 rpm for 10 min, and samples of the n-octanol (1 mL) and buffer (1 mL) layers were collected and counted on a Perkin Elmer (Waltham, MA, USA) Wizard2 2480 automatic gamma counter. The LogD7.4 values of [^68Ga]Ga-LW02075, [^68Ga]Ga-LW02050, and [^68Ga]Ga-SB3 were calculated following the equation: LogD7.4 = log10[(counts in the n-octanol phase)/(counts in the buffer phase)].

A short description of series [2]: Ex vivo biodistribution in PC-3 tumor-bearing mice. As to conditions: male, mouse, iv, total radioactivity, 1 h post injection, mean ± SD, n = 4; for tissue uptake at 1 h: NOD.Cg-Rag1^tm1Mom Il2rg^tm1Wjl/SzJ (NRG); for tissue to tissue ratio at 1 h: NOD.Cg-Rag1tm1Mom Il2rgtm1Wjl/SzJ (NRG). As to the method:
Biodistribution studies were conducted for ^68Ga-labeled SB3, LW02075 and LW02050 in PC-3 tumor-bearing mice (n = 4).
(§1) Imaging and biodistribution studies were performed on male NOD.Cg-Rag1^tm1Mom Il2rg^tm1Wjl/SzJ (NRG) mice following previously published procedures. The experiments were conducted following the guidelines established by the Canadian Council on Animal Care and approved by Animal Ethics Committee of the University of British Columbia. The mice were sedated (2.5% isoflurane in oxygen) and injected with 5 × 10^6 PC-3 cells (100 µL; 1:1 PBS/Matrigel) subcutaneously behind the left shoulder. The tumor-bearing mice were used for PET/CT imaging and biodistribution studies when the tumor grew to 5–8 mm in diameter.
For biodistribution studies, the mice were injected with the radiotracer (~2–4 MBq), as described above. Blocking of [^68Ga]Ga-LW02075 and [^68Ga]Ga-LW02050 was conducted by co-injection with 100 μg nonradioactive Ga-LW02075 and Ga-LW02050, respectively, through a lateral caudal tail vein under anaesthesia. At 1 h post injection, the mice were sedated and euthanized by CO2 inhalation. Blood was collected via cardiac puncture, and organs/tissues of interest were collected, weighed, and counted on a Perkin Elmer (Waltham, MA, USA) Wizard2 2480 automatic gamma counter.

For a further series, the system named is PC-3 tumor xenografts. In words: PET/CT imaging in mice bearing PC-3 tumor xenografts. It is filed as in vivo. As to conditions: 1 h post injection, mice. As to the method: as §1
PET/CT imaging experiments were performed on a Siemens (Knoxville, TN, USA) Inveon micro PET/CT scanner. Each tumor-bearing mouse was injected with ~3–6 MBq of ^68Ga-labeled tracer through a lateral caudal tail vein under anaesthesia. At around 50 min post injection, a 10 min CT scan was obtained first for localization and attenuation correction after segmentation for reconstructing the PET image, followed by a 10 min static PET scan.

The target of series [3] is GRPR. As to conditions: ref 14 (Devin et al.); cited from earlier work. The source says:
Most of the reported GRPR-targeted agonist and antagonist sequences contain a C-terminal amide. […] To the best of our knowledge, no GRPR-targeted radioligands containing a C-terminal hydroxamate have ever been reported. Therefore, the goal of this study was to evaluate the potential of C-terminal hydroxamate- ...

In series [4] the target is T1, GRPR. In words: In vitro competition binding assay, displacement of [125I-Tyr4]Bombesin from PC-3 cells. To be noted: GRPR-expressing PC-3 cells, 0.01 nM [125I-Tyr4]Bombesin, 1 h at 37 °C, ligand 10 μM to 1 pM, n = 3. As to the method:
The Ki values of Ga-LW02075, Ga-LW02050, and Ga-SB3 were measured using GRPR-expressing PC-3 prostate cancer cells via a cell-based competition binding assay. Ga-SB3, Ga-LW02075, and Ga-LW02050 inhibited the binding of [^125I-Tyr^4]Bombesin towards PC-3 cells in a dose-dependent manner (Figure 2).
Inhibition constants (Ki) of Ga-SB3, Ga-LW02075, and Ga-LW02050 toward GRPR were measured by in vitro competition binding assay following previously published procedures. The assays were conducted in triplicate with varied concentrations (10 μM to 1 pM) of Ga-SB3, Ga-LW02075, and Ga-LW02050. Briefly, 2 × 10^5 cells/well of PC-3 cells were seeded in 24-well poly-D-lysine plates 24 h prior to the assay. The growth medium was replaced with 400 μL of reaction medium (RPMI 1640 containing 2 mg/mL bovine serum albumin (BSA) and 20 mM HEPES), followed by 1 h incubation at 37 °C. The tested ligands in 50 μL reaction medium and 0.01 nM [^125I-Tyr^4]Bombesin in 50 μL reaction medium were added into the wells, and then incubated at 37 °C with moderate agitation for 1 h. […] Data analysis was performed using nonlinear regression with GraphPad (San Diego, CA, USA) Prism 10 software (Version 10.1.1).
A general note: Loss of bound radioactivity is the signal in a displacement assay; it reports binding, not function.

Read-outs that look alike come from different tables or passages of the source.

T1 sequence (P30550 whole entry): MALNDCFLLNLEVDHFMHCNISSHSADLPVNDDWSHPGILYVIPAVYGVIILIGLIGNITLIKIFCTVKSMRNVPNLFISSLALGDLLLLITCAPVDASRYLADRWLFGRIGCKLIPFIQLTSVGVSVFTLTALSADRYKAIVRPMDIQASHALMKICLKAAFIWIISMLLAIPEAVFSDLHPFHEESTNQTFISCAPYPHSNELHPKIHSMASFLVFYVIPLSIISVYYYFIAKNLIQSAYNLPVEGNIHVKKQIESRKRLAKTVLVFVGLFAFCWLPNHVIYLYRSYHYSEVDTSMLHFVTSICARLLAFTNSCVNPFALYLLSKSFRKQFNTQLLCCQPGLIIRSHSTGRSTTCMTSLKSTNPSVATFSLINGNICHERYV

With `Nc1ncnc2c1ncn2[C@@H]1O[C@H](COP(=O)(O)OP(=O)(O)OP(=O)(O)O)[C@@H](O)[C@H]1O` [ATP, adenosine triphosphate], on GRPR [1], the “Ca2+ mobilization, relative fluorescence units (RFUs = max − min)” value is on record as 271 ± 24.4 RFUs.
In the case of `CCNC(=O)[C@H](CC(C)C)NC(=O)[C@H](Cc1c[nH]cn1)NC(=O)CNC(=O)[C@@H](NC(=O)[C@H](C)NC(=O)[C@H](Cc1c[nH]c2ccccc12)NC(=O)[C@H](CCC(N)=O)NC(=O)[C@@H](Cc1ccccc1)NC(=O)COCC(=O)Nc1ccc(CNC(=O)CN2CCN(CC(=O)O)CCN(CC(=O)O)CCN(CC(=O)O)CC2)cc1)C(C)C` [[^68Ga]Ga-SB3, [^68Ga]Ga-DOTA-pABzA-DIG-D-Phe-Gln-Trp-Ala-Val-Gly-His-Leu-NHEt, metal not drawn, reference compound], the log distribution coefficient (logD) – broadly, the decadic logarithm of the distribution of all forms, ionised or not, between an organic phase and buffer at a given pH – in “physchem” is -2.47 ± 0.09. In addition, the tissue uptake at 1 h in series [2] (PC-3 tumor, read-out: PC-3 tumor uptake) was 6.98 ± 1.36 %ID/g; in series [2] (adrenal glands, read-out: Adrenal glands uptake), 2.07 ± 0.66 %ID/g; in series [2] (blood, read-out: Blood uptake), 0.5 ± 0.09 %ID/g; in series [2] (bone, read-out: Bone uptake) it was 0.12 ± 0.01 %ID/g; in series [2] (brain, read-out: Brain uptake), 0.04 ± 0.01 %ID/g; in series [2] (fat, read-out: Fat uptake), 0.05 ± 0.01 %ID/g. Further, the tissue uptake at 1 h in series [2] (heart, read-out: Heart uptake) stood at 0.16 ± 0.02 %ID/g; in series [2] (kidneys, read-out: Kidneys uptake), 2.26 ± 0.26 %ID/g; in series [2] (large intestine, read-out: Large intestine uptake), 2.2 ± 0.89 %ID/g; in series [2] (liver, read-out: Liver uptake) it was 2.1 ± 0.45 %ID/g; in series [2] (lungs, read-out: Lungs uptake), 1.18 ± 0.23 %ID/g; in series [2] (muscle, read-out: Muscle uptake) it was 0.18 ± 0.1 %ID/g. Besides, the tissue uptake at 1 h was 37.3 ± 6.9 %ID/g in series [2] (pancreas, read-out: Pancreas uptake); 6.03 ± 1.07 %ID/g in series [2] (small intestine, read-out: Small intestine uptake); 0.33 ± 0.17 %ID/g in series [2] (spleen, read-out: Spleen uptake); 1.42 ± 0.57 %ID/g in series [2] (stomach, read-out: Stomach uptake); 0.13 ± 0.01 %ID/g in series [2] (testes, read-out: Testes uptake). The tissue to tissue ratio at 1 h in series [2] (tumor and bone, read-out: Tumor/bone uptake ratio) was determined as 61 ± 15.5; in series [2] (tumor and kidney, read-out: Tumor/kidney uptake ratio) it was 3.09 ± 0.51; in series [2] (tumor and muscle, read-out: Tumor/muscle uptake ratio), 48.2 ± 24.9; in series [2] (tumor and pancreas, read-out: Tumor/pancreas uptake ratio) it was 0.19 ± 0.03; in series [2] (tumor and whole blood, read-out: Tumor/blood uptake ratio), 14.4 ± 3.88. Further, in the series on PC-3 tumor xenografts, the “Excretion pathway in PET images” value is on record as “excreted primarily through the renal pathway”. Moreover, in the series with PC-3 tumor xenografts, the “Pancreas in PET images” value is on record as “high pancreas uptake”.
Take “D-Phe-Gln-Trp-Ala-Val-Gly-His-Leu-NHOH [C-terminal hydroxamate-derived GRPR-targeted antagonist reported by Devin et al]”: on GRPR [3], the Ki – broadly, a dissociation constant, usually derived from enzyme kinetics or from competition with a known ligand – is 5.8 nM.
Consider “Ga-DOTA-Pip-D-Phe-Gln-Trp-Ala-Val-Gly-His-Leu-NHOH [Ga-LW02050]”, for which the inhibition constant (Ki) at GRPR [4] is 8.53 ± 1.52 nM. The “Ca2+ mobilization, relative fluorescence units (RFUs = max − min)” value on GRPR [1] was found to be 25.8 ± 7.95 RFUs. Further, the Agonist/antagonist characteristics result at GRPR [1] (50 nM, calcium release assay) is listed as “antagonist”.
“Ga-DOTA-pABzA-DIG-D-Phe-Gln-Trp-Ala-Val-Gly-His-Leu-NHEt [Ga-SB3, reference compound]”: the affinity at GRPR [4] corresponds to a Ki of 1.2 ± 0.31 nM.
On to “[D-Phe^6,Leu-NHEt^13,des-Met^14]Bombesin(6-14)”, for which the “Ca2+ mobilization, relative fluorescence units (RFUs = max − min)” value on GRPR [1] turned out to be 47.2 ± 6.61 RFUs.
The same measure, in the same setting: then bombesin, with 371 ± 65.0 RFUs.
